Earlier results on one substance are cited in publication PMC6615999.

The series deals with PKR (Homo sapiens) (UniProt P19525).

As to PKR (from UniProt P19525), the Kd was 500 µM.
